Assay results from patent US20250376507A1, “NOVEL TUMOR ANTIGEN-TARGETING ANTICANCER AGENT” (INDUSTRY FOUNDATION OF CHONNAM NATIONAL UNIVERSITY, priority 2022, published 2025).
“And” between values parts separate entries of the source, which are not always exact repeats. Equal values may be shown once.

T1: recombinant calreticulin protein (rCRT) (Homo sapiens, UniProt P27797)
T1 construct: purchased Abcam
T1 sequence (P27797 18-417): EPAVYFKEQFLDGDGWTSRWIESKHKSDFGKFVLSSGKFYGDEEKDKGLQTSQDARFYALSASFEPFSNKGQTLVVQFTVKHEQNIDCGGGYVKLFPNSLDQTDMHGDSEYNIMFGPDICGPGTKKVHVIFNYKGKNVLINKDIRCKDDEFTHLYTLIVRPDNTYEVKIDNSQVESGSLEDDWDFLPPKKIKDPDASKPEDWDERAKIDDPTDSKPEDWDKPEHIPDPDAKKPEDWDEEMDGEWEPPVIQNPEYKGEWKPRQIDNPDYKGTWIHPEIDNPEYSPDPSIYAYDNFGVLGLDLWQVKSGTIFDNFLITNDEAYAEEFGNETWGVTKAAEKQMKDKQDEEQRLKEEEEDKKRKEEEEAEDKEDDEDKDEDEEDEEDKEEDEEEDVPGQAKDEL

T2: ecto-CRT on CT-26 cells (Mus musculus, UniProt P14211)
T2 sequence (P14211 18-416): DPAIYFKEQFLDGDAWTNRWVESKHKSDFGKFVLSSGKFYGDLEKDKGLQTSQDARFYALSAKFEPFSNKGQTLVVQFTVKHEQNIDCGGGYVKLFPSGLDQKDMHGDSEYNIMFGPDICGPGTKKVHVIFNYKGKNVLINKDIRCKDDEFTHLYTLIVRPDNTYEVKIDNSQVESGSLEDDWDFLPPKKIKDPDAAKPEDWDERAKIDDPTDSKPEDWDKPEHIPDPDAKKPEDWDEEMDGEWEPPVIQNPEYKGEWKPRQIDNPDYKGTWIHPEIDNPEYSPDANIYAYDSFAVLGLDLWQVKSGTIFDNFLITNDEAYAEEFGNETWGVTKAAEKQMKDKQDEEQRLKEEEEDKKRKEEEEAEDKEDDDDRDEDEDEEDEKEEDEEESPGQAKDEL

B1: CRT3LP: PASylated L-ASNase fused with CRT-targeting CRT3 monobody at N-terminus and PAS200 tag plus His6 tag at C-terminus (protein)
chain: MASVSDVPRDLEVVAATPTSLLISWKLGFFKRYYRITYGETGGNSPVQEFTVPGSKSTATISGLKPGVDYTITVYAVTGQPMYGQPMYPISINYRTSGGGGSGGGGSEFLPNITILATGGTIAGGGDSATKSNYTAGKVGVENLVNAVPQLKDIANVKGEQVVNIGSQDMNDDVWLTLAKKINTDCDKTDGFVITHGTDTMEETAYFLDLTVKCDKPVVMVGAMRPSTSMSADGPFNLYNAVVTAADKASANRGVLVVMNDTVLDGRDVTKTNTTDVATFKSVNYGPLGYIHNGKIDYQRTPARKHTSDTPFDVSKLNELPKVGIVYNYANASDLPAKALVDAGYDGIVSAGVGNGNLYKTVFDTLATAAKNGTAVVRSSRVPTGATTQDVEVDDAKYGFVASGTLNPQKARVLLQLALTQTKDPQQIQQIFNQYGSSGGGGSGGGGSASPAAPAPASPAAPAPSAPAASPAAPAPASPAAPAPSAPAASPAAPAPASPAAPAPSAPAASPAAPAPASPAAPAPSAPAASPAAPAPASPAAPAPSAPAASPAAPAPASPAAPAPSAPAASPAAPAPASPAAPAPSAPAASPAAPAPASPAAPAPSAPAASPAAPAPASPAAPAPSAPAASPAAPAPASPAAPAPSAPAAGSHHHHHH
B2: CRT4LP: PASylated L-ASNase fused with CRT-targeting CRT4 monobody at N-terminus and PAS200 tag plus His6 tag at C-terminus (protein)
chain: MASVSDVPRDLEVVAATPTSLLISWGQPMYGQPMYYYRITYGETGGNSPVQEFTVPGSKSTATISGLKPGVDYTITVYAVTKLGFFKRPISINYRTSGGGGSGGGGSEFLPNITILATGGTIAGGGDSATKSNYTAGKVGVENLVNAVPQLKDIANVKGEQVVNIGSQDMNDDVWLTLAKKINTDCDKTDGFVITHGTDTMEETAYFLDLTVKCDKPVVMVGAMRPSTSMSADGPFNLYNAVVTAADKASANRGVLVVMNDTVLDGRDVTKTNTTDVATFKSVNYGPLGYIHNGKIDYQRTPARKHTSDTPFDVSKLNELPKVGIVYNYANASDLPAKALVDAGYDGIVSAGVGNGNLYKTVFDTLATAAKNGTAVVRSSRVPTGATTQDVEVDDAKYGFVASGTLNPQKARVLLQLALTQTKDPQQIQQIFNQYGSSGGGGSGGGGSASPAAPAPASPAAPAPSAPAASPAAPAPASPAAPAPSAPAASPAAPAPASPAAPAPSAPAASPAAPAPASPAAPAPSAPAASPAAPAPASPAAPAPSAPAASPAAPAPASPAAPAPSAPAASPAAPAPASPAAPAPSAPAASPAAPAPASPAAPAPSAPAASPAAPAPASPAAPAPSAPAASPAAPAPASPAAPAPSAPAAGSHHHHHH

Key:
[1] = target: T1, recombinant calreticulin protein (rCRT); experiment: Binding affinity of recombinant proteins for CRT by ELISA; conditions: for Kd: ELISA, read-out: dissociation constant (Kd) for CRT; for affinity for CRT relative to single CRT3/CRT4 monobody: compared with monobodies of Zhang et al. 2021
Description: The affinity of the recombinant protein for CRT was measured by enzyme-linked immunosorbent analysis (ELISA) (J. D. Beatty, et al., Journal of immunological methods 100(1-2), 173-179, 1987). In brief, 100 μL of PASylated CRT-targeted L-ASNases coated onto 96-well microplates (0-10 μM/well) overnight at 4° C. Unbound proteins were removed by aspiration from the wells and 100 μL of 10 μM rCRT proteins were added to each well and incubated for 2 h at room temperature. After rCRTs were removed, rabbit anti-CRT antibodies (diluted to 1:500) were added to each well and incubated for 2 h at room temperature. The antibodies were removed by aspiration, and the wells were washed five times with T-PBS. Then, biotin-conjugated anti-rabbit secondary antibodies (diluted to 1:1000) were added and incubated for 1 h. After washing with T-PBS, 100 μL of avidin-HRP (diluted to 1:250) was added to each well and incubated for 30 minutes at room temperature. After aspiration and washing five times, 100 μL of 1×3,3′,5,5′-tetramethylbenzidine (TMB) buffer (Thermo Fisher Scientific, USA) was added to each well to form a […] reaction product. After 15 minutes, 50 μL of 0.5 M H2SO4 solution was added to each well to stop the chromogenic reaction. The amount of colorimetric product was evaluated as the optical density value at 450 nm (OD450) by a SpectraMax M2 microtiter plate reader (Molecular Devices, USA).

CT-26 cells = experiment: Cell viability (CCK-8) of CT-26 cells; format: cell-based, mouse; conditions: 1 IU/mL; for cell viability: 24 h, no anticancer pretreatment; for reduction of viability of cells pretreated with DOX and MTX, higher extent: 24 h after DOX or MTX pretreatment; for reduction in cell viability in cells pretreated with GEM: 24 h after GEM pretreatment
Description: CT-26 and MC-38 cells (10^4 cells per well) were seeded into three wells of a 96-well plate and incubated at 37° C. The next day, the culture medium was replaced with 100 μL of fresh medium containing the above concentrations of anticancer agents. After incubation at 37° C. for 4 h, the culture medium was removed and the cells were washed three times with PBS. […] Finally, CCK-8 reagent (10 μL/well) was added for 3 h at 37° C., and the amount of color in each sample was measured at OD450.

CT-26 tumor = experiment: In vivo anti-cancer efficacy in CT-26 tumor-bearing mice; conditions: for tumor suppression in mice treated with GEM: combination with GEM (non-ICD-inducing); for tumor growth in mice treated with ICD-inducing drugs: summary statement, doxorubicin and mitozantrone
Description: CT-26 and MC-38 tumor cells (106 in 100 μL PBS) were implanted subcutaneously into the right flanks of 6-week-old BALB/c and C57BL/6 female mice (Orient company, Korea), respectively. When the tumors reached about 100 mm^3, the tumor-bearing mice were injected intraperitoneally with anticancer agents (15 mg/kg GEM, 10 mg/kg DOX or 2 mg/kg MTX) three times every 2 days. Simultaneously, the mice were injected intravenously with the PASylated recombinant proteins of the present invention five times every 2 days. The length (L), width (W), and height (H) of each tumor were recorded every 3 days using a digital caliper, and the tumor volume (mm3) was calculated using the following formula (L×H×W)/2. Mice were euthanized when tumors were ˜1,500 mm^3 and all animal experiments were performed in accordance with the general principles and procedures outlined in the National Institutes of Health Guidelines, and all protocols were approved by the Chonnam National University Animal Care and Use Committee (permit number: HCRL 16-001).

ecto-CRT on CT-26 cells = target: T2, ecto-CRT on CT-26 cells; experiment: Confocal immunofluorescence staining of CT-26 cells; format: cell-based; set-up: endogenous in cells; host or cells: CT-26 and MC-38 mouse colon cancer cells (in culture, or CT-26 tumors in mice)
Description: PASylated CRT-targeted L-ASNases bound to ecto-CRT on cells were visualized by confocal immunofluorescence microscopy with reference to the prior art (Y. Zhang, et al., Cancers, 13(11), 2801, 2021). After overnight incubation in a cover-glass, CT-26 and MC-38 cells (104) were treated with anticancer agents for 4 h at 37° C. The cells were then fixed with 1% PFA for 15 min, stained with 100 nM PASylated recombinant proteins for 1 h on ice, and treated with anti-His tagged monobodies (diluted to 1:1000) and Alexa Fluor 488-conjugated secondary antibody for 1 h (5 μg/mL). Cell membranes were stained with Alexa Fluor 555-conjugated wheat germ agglutinin (WGA) (diluted to 1:5000). Between each step, samples were washed with cold T-PBS. Finally, the cells were incubated with 4′,6-diamidino-2-phenylindole (DAPI) (Thermo Fisher Scientific, USA) to stain the nuclei. Immunofluorescence signals were imaged using an LSM510 confocal microscope (ZEISS, Jena, Germany) and data were analyzed with ZEN-LSM imaging software (ZEISS, Jena, Germany).

[2] = CT-26 cells treated with DOX or MTX

Molecule | Kd [1] [nM] | affinity for CRT relative to single CRT3/CRT4 monobody [1] | cell viability (CT-26 cells) | reduction of viability of cells pretreated with DOX and MTX, higher extent (CT-26 cells) [fold] | reduction in cell viability in cells pretreated with GEM (CT-26 cells) | sudden death of mice (CT-26 tumor; 20 IU CRT3LP per injection, DOX-treated mice, by day 12) | optimal therapeutic dose (CT-26 tumor; DOX-treated mice) [IU/injection/mouse] | tumor suppression in mice treated with GEM (CT-26 tumor) | tumor growth in mice treated with ICD-inducing drugs (CT-26 tumor) | immunofluorescence staining, binding to cells (ecto-CRT on CT-26 cells; [2]) | immunofluorescence staining, binding to cells (ecto-CRT on CT-26 cells; CT-26 cells treated with GEM)
B1 | 2.07 ± 0.173 | four times higher | barely affected | 2 | not observed | caused sudden death and 2 out of 3 and Two of the mice injected with 20 IU died | 8 | not and did not enhance tumor suppression | significantly inhibiting tumor growth | only bound | not
B2 | 2.3 ± 0.166 | four times higher | barely affected | 2 | not observed |  |  | not and did not enhance tumor suppression | significantly inhibiting tumor growth | only bound | not
